The subject of data set [1] is FAM19A5 mutants M1 to M8. Description: Epitope mapping ELISA with FAM19A5 mutants M1-M8. Type of data set: binding. As for the experimental part:
(§1) To further characterize the binding epitopes of the anti-FAM19A5 antibodies disclosed in the present disclosure, the amino acid sequences for the different FAM19 family members (i.e., FAM19A1-5) were aligned. […] The amino acid sequences of these regions were replaced with the consensus sequence of the corresponding regions for the FAM19A1-4 proteins. See Table 13 (the mutated amino acid residues are bolded and underlined).
(§2) The mutant FAM19A5-expressing phages were prepared as follows. To prepare the media for phage culture, 55.6 ml of 2M Glucose (D-(+)-Glucose, Sigma), 5 mL of 1M MgCl2 (Magnesium chloride, Junsei) 1 mL of 34 mg/mL chloramphenicol (Sigma) were added to 2×YT media. Colonies obtained through mono-phage ELISA were selected and placed in 5 mL of prepared media (2×YT-GMC) to be cultured for 16 hours at 37° C. with shaking incubator (VS-8480, Vision). 100 μL of each culture was transferred to 10 mL 2×YT-GMC individually which were cultured at 37° C. in the incubator until detection value at O.D. 600 nm reached 0.5. Once detection value has reached 0.5 at O.D. 600 nm, 5 mL of each culture were obtained as samples to be infected. Following sample preparation, 50 μL of […] was added to individual samples then incubated at 37° C. without shaking for 30 minutes and with shaking for additional 30 minutes. Individual cultures were centrifuged for 15 minutes at 3,850 rpm using Micro centrifuge (Micro12, Hanil). The supernatants of centrifuged cultures were removed to be kept separate and replaced with 5 mL of 2×YT media containing 1 mL of IM IPTG (AG Scientific), 5 mL of 1M MgCl2.1 ml of 70 μg/μL kanamycin (Biopure) and 1 mL of Chloramphenicol. The resulting pellets were dispersed thoroughly in newly added media followed by incubation at 30° C. for 16 hours with stirring.
(An ELISA detects its analyte on a solid surface through an enzyme-linked reagent.)

The target of data set [2] is T1, FAM19A5 mutants M1 to M8 (Homo sapiens, UniProt Q7Z5A7, A66V/A69S/K72P/R67K/R71F).
T1 construct: made in house; host or cells: phage display with helper phage
Nature of the data set: Epitope mapping ELISA with FAM19A5 mutants M1-M8. Type of data set: binding. The method, then: as §1, §2

Data set [3] deals with T2, FAM19A5 mutants M1 to M8 (Homo sapiens, UniProt Q7Z5A7).
T2 construct: made in house; host or cells: phage display with helper phage
Description: Epitope mapping ELISA with FAM19A5 mutants M1-M8. Type of data set: binding. As for the experimental part: as §1, §2

Data set [4] concerns human FAM19A5 protein epitope fragments F1-F6. Description: Epitope mapping: binding to BSA-conjugated FAM19A5 epitope fragments F1-F6 (Western blot / ELISA). The note with it: ELISA. The method, then: Overlapping peptide fragments (F1-F6 epitope fragments; SEQ ID NOs: 178-183) of the human FAM19A5 protein were synthesized and conjugated to BSA (SEQ ID NOs: 322-327). Binding of the different anti-FAM19A5 antibodies to the BSA-conjugated peptide fragments F1-F6 was determined by Western blot analysis or ELISA assay. For the Western blot analysis, BSA-conjugated FAM19A5 fragments F1-F6 were separated by SDS polyacrylamide gel electrophoresis and transferred to a nitrocellulose membrane by the standard procedure. The membrane was incubated with the anti-FAM19A5 antibody (e.g., 1-65, […], 1-65-scFv-rabbit Fc-SSS), and the antigen-antibody complexes were detected with the appropriate secondary antibody conjugated with horse-radish peroxidase (anti-rabbit IgG (Fc specific)-HRP, 1:4000 dilution). For the ELISA assay, the following protocol was used. FAM19A5 fragment F1-F6 (diluted to 1 μg/mL in 50 mM carbonate buffer (Biosesang) or to 20 μg/mL for high concentration analysis) were used to coat the wells of 96-well immuno plates (Thermo Scientific) (100 μL/well) overnight at 4° C. and then subsequently washed twice in 1×PBS. The plates were then blocked with the blocking buffer (100 μL/well) for 1 hour at room temperature. During the 1-hour incubation, the relavant anti-FAM19A5 antibodies were diluted to 1 μg/mL (or 20 μg/mL for high concentration analysis) in the diluent buffer. Once the plates were washed (2× using 1×PBS), the diluted anti-FAM19A5 antibodies were added to the appropriate wells, and the plates were incubated at room temperature for 1 hour. The plates were subsequently washed for a total of five times using the washing buffer. Next, the ODP substrate (prepared by dissolving one ODP tablet (O-phenylenediamine Dihydrochloride, Thermo) into 9 mL of sterilized deionized water and 1 mL of 10× stable Peroxide Stable buffer (Theromo)) was added to each of the wells, and the color change reaction was allowed to occur for 10 minutes. This reaction was stopped by adding 100 μL of 2N H2SO4 (Daejung) to the wells. The absorption value of each of the wells was detected at 492 nm using a 96-well microplate reader (Molecular Device).

The test system of the next data set is C57BL/6 mice. Nature of the data set: Effect of anti-FAM19A5 antibody administration itself on hearing ability (ABR threshold). Type of data set: in vivo, mouse. The note with it: 30 mg/kg i.v. once weekly; 2 weeks post antibody administration; no noise exposure. The method, then:
FIGS. 5A, 5B, and 5C show the effect of FAM19A5 antagonist administration on hearing ability in mice. The effect on hearing was assessed by measuring auditory brainstem response (ABR) generated after FAM19A5 antagonist administration. FIG. 5A provides a schematic of the experimental design. As shown, anti-FAM19A5 antibody (1-30) or control human IgG antibody was administered to the mice intravenously once a week (30 mg/kg per dose). ABR (i.e., hearing test) was measured prior to the initial administration of the antibodies and then at day 1, week 2, and 8 week post antibody administration. FIG. 5B provides comparison of ABR threshold in the mice prior to the initial administration of the anti-FAM19A5 antibody (box) or the control IgG antibody (circle). […] In both FIGS. 5B and 5C, the ABR threshold was measured at a frequency ranging from 0 to 64 kHz.
To assess whether the administration of a FAM19A5 antagonist itself has any effect on hearing, C57BL/6 mice (8 weeks old) were intravenously administered with either an anti-FAM19A5 antibody (1-30 antibody) or a control human IgG antibody. […] To assess hearing, auditory brainstem response (ABR) threshold was measured prior to the initial antibody administration and then at day 1, 2 weeks, and 8 weeks post antibody administration.

This is an account of results in US20260265360A1, “USE OF ANTI-FAM19A5 ANTAGONISTS FOR TREATING HEARING DISORDERS” (NEURACLE SCIENCE CO., LTD., priority 2023, published 2026).

T2 sequence (Q7Z5A7 with tags, fused parts or gaps isoform Q7Z5A7-2, change not shown): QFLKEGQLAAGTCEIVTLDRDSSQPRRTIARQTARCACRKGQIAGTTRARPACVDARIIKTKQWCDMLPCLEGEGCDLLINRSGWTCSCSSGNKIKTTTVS
T1 sequence (Q7Z5A7 26-125 isoform Q7Z5A7-2 A59V/R60K/A62S/R64F/K65P): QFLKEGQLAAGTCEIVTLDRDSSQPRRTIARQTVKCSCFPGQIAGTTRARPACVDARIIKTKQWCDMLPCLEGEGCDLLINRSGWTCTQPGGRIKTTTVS

B1: 2-13: anti-FAM19A5 antibody; VH SEQ ID NO: 35, VL SEQ ID NO: 39 (antibody, V domains shown)
VH: AVTLDESGGGLQTPGGALSLVCKASGFTFSSHGMFWVRQTPGKGLEYVAEITNDGSGTNYGSAVKGRATISRDNGQSTVRLQLNNLRAEDTGTYFCARSTYECPGGFSCWGDTGQIDAWGHGTEVIVSS
VL: ALTQPSSVSANPGETVKITCSGGSYSYGWFQQKSPGSALVTVIYWDDERPSDIPSRFSGALSGSTNTLTITGVQADDEAVYFCGTEDISGTAGVFGAGTTLTVL
modifications: 2-13 VH; 2-13 VL
As for B1, the “binding to FAM19A5 mutants M1-M3 and M5-M7” value in the data set with FAM19A5 mutants M1 to M8 [1] is recorded as “moderate to high binding”. Besides, the “binding to FAM19A5 mutant M4” value with FAM19A5 mutants M1 to M8 [2] is given as “failed to bind”. In the data set with FAM19A5 mutants M1 to M8 [3], the “binding to FAM19A5 mutant M8” value is “failed to bind”. Besides, the “binding to any of the epitope fragments F1-F6” value in data set [4] is reported as “did not appear to bind”.

B2: 1-30: anti-FAM19A5 antibody, de-immunized variant of 3-2; VH SEQ ID NO: 235, VL SEQ ID NO: 240 (antibody, V domains shown)
VH: AVTLDESGGGLQTPGGALRLSCKASGFDFESFNMFWVRQAPGKGLEYVSQISSSEEDENYAPAVKGRATISRDNGQSTLYLQMNSLRAEDTGTYYCAKSSYDCPYGHCSSGVDSAGEIDAWGHGTEVIVSS
VL: ALTQPSSVSANPGETVKITCSGGGSEEEQYYYGWYQQKPGSAPVTLIYQDEERPSDIPSRFSGSTSGSTATLTITGVQAGDEADYYCGSWDSEDEDHFGAGTTLTVL
modifications: Low-PI VH, 1-30 VH, 1-17 VH, 1-32 VH, 4-11 VH, 6-10 VH; 1-30 VL
On to B2, for which the “ABR threshold values vs control IgG antibody” value with C57BL/6 mice is “remained comparable”.
